Test results from IntAct's records for PubMed 31515488.

B1: U3 small nucleolar RNA-associated protein 14 homolog C (Homo sapiens), Q5TAP6 (parent)
chain: MNVNQVAENLALSHQEELVDLPKNYPLSENEDEGDSDGERKHQKLLEAIISLDGKNRRKLAERSEASLKVSEFSVSSEGSGEKLGLADLLEPVKTSSSLATVKKQLNRVKSKKVVELPLNKEKIEQIHREVAFSKTSQVLSKWDPIILKNQQAEQLVFPLGKEQPAIAPIEHALSGWKARTPLEQEIFNLLHKNKQPVTDPLLTPMEKASLQAMSLEEAKMHRAELQRARALQSYYEAKARKEKKIKSKKYHKVVKKGKAKKALKEFEQLQKVNPTVALEEMEKIENARMMERMSLKHQNSGKWAKSKAIMAKYDLEARQAMQEQLAKNKELTQKLQVASESEEEEGGTEVEELLVPHVANEVQMNVDGPNPWMFRSCTSDTKEAATQEDPEQVPELAAHEVSASEAEERPVAEEEILLREFEERQSLRKRSELNQDAEPASSQETKDSSSQEVLSELRALSQKLKEKHQSRKQKASSEGTVPQVQREEPAPEEAEPLLLQRSERVQTLEELEELGKEDCFQNKELPRPVLEGQQSERTPNNRPDAPKEKKEKEQLINLQNFLTTQSPSVRSLAVPTIIEELEDEEERDQRQMIKEAFAGDDVIRDFLKEKREAVEASKPKDVDLTLPGWGEWGGVGLKPSAKKRRQFLIKAPEGPPRKDKNLPNVIISEKRNIHAAAHQVQVLPYPFTHHRQFERTIQTPIGSTWNTQRAFQKLTTPKVVTKPGHIIKPIKAEDVGYQSSSRSDLPVIQRNPKRITTRHNKEEKL
partner: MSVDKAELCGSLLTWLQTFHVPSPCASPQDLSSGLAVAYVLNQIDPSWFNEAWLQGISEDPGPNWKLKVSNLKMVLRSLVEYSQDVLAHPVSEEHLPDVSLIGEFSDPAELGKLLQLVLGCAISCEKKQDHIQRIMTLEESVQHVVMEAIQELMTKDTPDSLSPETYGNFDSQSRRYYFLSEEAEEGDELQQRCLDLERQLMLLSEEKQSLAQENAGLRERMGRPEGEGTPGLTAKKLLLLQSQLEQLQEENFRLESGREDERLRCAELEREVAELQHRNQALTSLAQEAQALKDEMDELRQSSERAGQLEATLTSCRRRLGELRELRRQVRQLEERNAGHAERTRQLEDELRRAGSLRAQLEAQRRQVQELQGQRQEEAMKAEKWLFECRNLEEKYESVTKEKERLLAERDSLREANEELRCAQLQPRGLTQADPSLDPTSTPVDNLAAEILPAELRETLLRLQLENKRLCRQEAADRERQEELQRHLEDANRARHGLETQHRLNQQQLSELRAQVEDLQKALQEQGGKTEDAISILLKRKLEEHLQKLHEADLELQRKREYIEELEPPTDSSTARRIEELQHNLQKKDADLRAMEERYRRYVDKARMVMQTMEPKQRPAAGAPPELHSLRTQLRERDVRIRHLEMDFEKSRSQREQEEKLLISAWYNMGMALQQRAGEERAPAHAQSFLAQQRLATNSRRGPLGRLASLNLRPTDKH
B2: E3 ubiquitin-protein ligase MARCHF5 (Homo sapiens), Q9NX47 (parent)
chain: MPDQALQQMLDRSCWVCFATDEDDRTAEWVRPCRCRGSTKWVHQACLQRWVDEKQRGNSTARVACPQCNAEYLIVFPKLGPVVYVLDLADRLISKACPFAAAGIMVGSIYWTAVTYGAVTVMQVVGHKEGLDVMERADPLFLLIGLPTIPVMLILGKMIRWEDYVLRLWRKYSNKLQILNSIFPGIGCPVPRIPAEANPLADHVSATRILCGALVFPTIATIVGKLMFSSVNSNLQRTILGGIAFVAIKGAFKVYFKQQQYLRQAHRKILNYPEQEEA
partner: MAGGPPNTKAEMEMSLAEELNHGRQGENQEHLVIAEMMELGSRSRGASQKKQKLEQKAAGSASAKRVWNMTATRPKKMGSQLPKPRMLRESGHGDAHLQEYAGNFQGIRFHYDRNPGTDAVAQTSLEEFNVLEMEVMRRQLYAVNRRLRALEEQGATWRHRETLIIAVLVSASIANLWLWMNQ
B3: Annexin A10 (Homo sapiens), Q9UJ72 (parent)
chain: MFCGDYVQGTIFPAPNFNPIMDAQMLGGALQGFDCDKDMLINILTQRCNAQRMMIAEAYQSMYGRDLIGDMREQLSDHFKDVMAGLMYPPPLYDAHELWHAMKGVGTDENCLIEILASRTNGEIFQMREAYCLQYSNNLQEDIYSETSGHFRDTLMNLVQGTREEGYTDPAMAAQDAMVLWEACQQKTGEHKTMLQMILCNKSYQQLRLVFQEFQNISGQDMVDAINECYDGYFQELLVAIVLCVRDKPAYFAYRLYSAIHDFGFHNKTVIRILIARSEIDLLTIRKRYKERYGKSLFHDIRNFASGHYKKALLAICAGDAEDY
partner: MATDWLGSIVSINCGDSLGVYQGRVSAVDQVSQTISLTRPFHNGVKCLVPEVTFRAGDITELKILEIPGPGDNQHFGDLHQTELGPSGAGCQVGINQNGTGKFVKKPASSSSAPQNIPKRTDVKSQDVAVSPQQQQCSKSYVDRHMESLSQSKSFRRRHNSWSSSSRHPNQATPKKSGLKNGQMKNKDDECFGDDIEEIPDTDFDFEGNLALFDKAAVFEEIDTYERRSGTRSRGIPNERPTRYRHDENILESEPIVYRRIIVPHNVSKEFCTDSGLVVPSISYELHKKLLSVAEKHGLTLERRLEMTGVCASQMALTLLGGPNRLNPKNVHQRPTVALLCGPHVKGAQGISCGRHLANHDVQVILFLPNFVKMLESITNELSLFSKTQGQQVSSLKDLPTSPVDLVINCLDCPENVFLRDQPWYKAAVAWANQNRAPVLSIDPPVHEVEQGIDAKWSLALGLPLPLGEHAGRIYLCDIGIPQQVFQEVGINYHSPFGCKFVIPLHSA

Variants of: B1
Details: with hook2_human HOOK2, Q96ED9

**Q.** With G85V as the variant, how does the “effect of a mutation on the interaction” value read?
**A.** The value was “with no effect”.

**Q.** For I170V, which “effect of a mutation on the interaction” value is on record?
**A.** Its value is “with no effect”.

**Q.** How did the “effect of a mutation on the interaction” value turn out when R672H was run?
**A.** Its value is “with no effect”.

**Q.** K247E was tested. Which “effect of a mutation on the interaction” value did it give?
**A.** Its value is “with no effect”.

**Q.** R319H was tested. Which “effect of a mutation on the interaction” value did it give?
**A.** The value was “with no effect”.

**Q.** Which “effect of a mutation on the interaction” value does the source give for A652T here?
**A.** The value was “with no effect”.

**Q.** Which “effect of a mutation on the interaction” value does the source give for V109D here?
**A.** The value was “with no effect”.

**Q.** For V570M, which “effect of a mutation on the interaction” value is on record?
**A.** Its value is “with no effect”.

Variants of: B2
Details: with fate1_human FATE1, Q969F0

**Q.** With D202N as the variant, how does the “effect of a mutation on the interaction” value read?
**A.** The value was “with no effect”.

Variants of: B3
Details: with edc3_human EDC3, Q96F86

**Q.** For M62T, which “effect of a mutation on the interaction” value is on record?
**A.** The value was “disrupting interaction strength”.

**Q.** With F234S as the variant, how does the “effect of a mutation on the interaction” value read?
**A.** The value was “with no effect”.

**Q.** Which “effect of a mutation on the interaction” value does the source give for M71L here?
**A.** The value was “with no effect”.
